Assay results taken from patent publication US20260109776A1 (Amgen, published 2026).
Where two headings read alike, the source gives them in different places.

Columns and labels:
[1] = target: T1, human CD40 on cells (human, UniProt P25942 21-277); assay: flow cytometry, labelled CD40L on CD40-293T cells, antibody at 20 ug/ml
T1 construct: also called CD40 receptor on human B cells
Protocol: (§1) Percent ligand binding inhibition was calculated as [(CD40L binding gMFI in the absence of anti-CD40)−(CD40L binding gMFI in the presence of anti-CD40)]/(CD40L binding gMFI in the absence of anti-CD40). gMFI: geometric mean fluorescent intensity. All anti-CD40 antibodies show minimal effects on the ability of CD40L to bind to the CD40 receptor (Table 7).
Target sequence in this assay (P25942 21-277 limits assumed): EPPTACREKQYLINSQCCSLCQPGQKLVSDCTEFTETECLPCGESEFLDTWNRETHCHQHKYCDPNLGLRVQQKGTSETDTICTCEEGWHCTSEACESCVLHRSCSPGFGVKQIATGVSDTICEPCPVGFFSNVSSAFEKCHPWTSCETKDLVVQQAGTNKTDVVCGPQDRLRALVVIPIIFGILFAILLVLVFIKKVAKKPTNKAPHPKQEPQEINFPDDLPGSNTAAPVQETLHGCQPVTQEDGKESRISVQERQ

[2] = target: T1, human CD40 on cells; assay: cell-based or functional assay
Target sequence in this assay (P25942 21-277 limits assumed): as above

[3] = target: T2, cynomolgus monkey CD40 (cynomolgus monkey, UniProt P25942 21-193 (human entry), limits assumed); assay: Octet
T2 chain: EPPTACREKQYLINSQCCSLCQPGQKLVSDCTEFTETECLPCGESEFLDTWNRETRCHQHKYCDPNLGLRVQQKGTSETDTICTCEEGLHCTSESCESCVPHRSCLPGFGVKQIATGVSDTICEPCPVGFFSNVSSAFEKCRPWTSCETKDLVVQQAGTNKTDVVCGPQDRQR
Protocol: (§2) The binding affinity of anti-human CD40 antibodies to human and cynomolgus monkey CD40 was measured by Octet assay (Table 3), quantifying association rate (Kon), disassociation rate (Kdis), and equilibrium binding constant (KD). Cross-reactivity of anti-CD40 antibodies to related TNF receptor superfamily (TNFRSF) members was evaluated by expressing human TNFR1, TNFR2, TNFR10, or TNFR14 on HEK293 cells by transient transfection of expression vectors encoding these genes. Binding of indicated anti-human CD40 antibody to these transfected cells was determined by flow cytometry. […] Cross-reactivity of anti-CD40 antibodies to cynomolgus monkey and mouse CD40 was evaluated by expressing cynomolgus monkey or mouse CD40 on HEK293 cells by transient transfection of expression vectors encoding these genes. Binding of indicated anti-human CD40 antibody to cells overexpressing cynomolgus monkey and mouse CD40 was determined by flow cytometry.

[4] = target: human CD40 (human, UniProt P25942 21-193, limits assumed); assay: Octet
Protocol: as §2

[5] = target: T1, human CD40 on cells; assay: flow cytometry, labelled CD40L on CD40-293T cells, antibody at 2.5 ug/ml
Protocol: as §1
Target sequence in this assay (P25942 21-277 limits assumed): as the sequence (P25942 21-277 limits assumed) above

[6] = target: T3, mouse CD40 on cells (mouse, UniProt P27512 20-289); assay: flow cytometry, HEK293 transfectants
T3 construct: whole, on cells; also called mouse CD40 on HEK293 cells; CD40 on mouse B cells
T3 sequence (looked up): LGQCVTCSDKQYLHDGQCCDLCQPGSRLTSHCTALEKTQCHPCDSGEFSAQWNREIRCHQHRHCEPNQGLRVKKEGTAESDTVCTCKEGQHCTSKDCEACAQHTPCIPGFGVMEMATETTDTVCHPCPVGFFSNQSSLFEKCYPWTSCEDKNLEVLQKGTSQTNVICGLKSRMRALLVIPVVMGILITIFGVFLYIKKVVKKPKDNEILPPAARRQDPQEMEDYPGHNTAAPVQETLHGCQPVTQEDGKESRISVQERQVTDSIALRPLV

[7] = target: T1, human CD40 on cells; assay: flow cytometry, labelled CD40L on CD40-293T cells, antibody at 5 ug/ml
Protocol: as §1
Target sequence in this assay (P25942 21-277 limits assumed): as the sequence (P25942 21-277 limits assumed) above

[8] = target: T1, human CD40 on cells; assay: cell-based or functional assay; remark: listed apart in the source
[9] = target: T4, human TNFR1 (human, UniProt P19438 30-455); assay: flow cytometry, HEK293 transfectants
T4 construct: whole, on cells
T4 sequence (looked up): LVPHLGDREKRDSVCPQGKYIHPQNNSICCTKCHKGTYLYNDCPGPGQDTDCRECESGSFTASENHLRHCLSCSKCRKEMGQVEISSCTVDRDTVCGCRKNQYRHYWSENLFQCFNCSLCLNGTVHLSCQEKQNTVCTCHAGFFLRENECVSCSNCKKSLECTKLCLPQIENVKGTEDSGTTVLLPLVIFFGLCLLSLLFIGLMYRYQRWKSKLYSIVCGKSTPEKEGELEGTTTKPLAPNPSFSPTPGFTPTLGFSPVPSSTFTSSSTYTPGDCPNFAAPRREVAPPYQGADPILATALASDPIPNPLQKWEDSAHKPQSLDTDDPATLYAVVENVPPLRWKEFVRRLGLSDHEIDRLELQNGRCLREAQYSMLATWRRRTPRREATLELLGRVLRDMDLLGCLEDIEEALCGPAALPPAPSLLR
Protocol: as §2

[10] = target: T5, human TNFR2 (human, UniProt P20333 23-461); assay: flow cytometry, HEK293 transfectants
T5 construct: whole, on cells
T5 sequence (looked up): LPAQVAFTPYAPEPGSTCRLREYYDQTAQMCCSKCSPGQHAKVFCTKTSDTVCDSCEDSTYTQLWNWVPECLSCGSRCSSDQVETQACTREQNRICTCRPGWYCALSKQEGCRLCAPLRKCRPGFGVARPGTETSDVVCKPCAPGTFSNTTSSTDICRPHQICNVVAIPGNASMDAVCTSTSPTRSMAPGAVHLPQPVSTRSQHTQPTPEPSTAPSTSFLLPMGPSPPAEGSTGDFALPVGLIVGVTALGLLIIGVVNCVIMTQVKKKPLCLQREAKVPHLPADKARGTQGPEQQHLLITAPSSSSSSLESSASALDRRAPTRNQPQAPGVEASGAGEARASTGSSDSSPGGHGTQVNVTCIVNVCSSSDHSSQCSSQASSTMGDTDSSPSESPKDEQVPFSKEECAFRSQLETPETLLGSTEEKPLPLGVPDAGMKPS
Protocol: as §2

[11] = target: T6, human TNFR14 (human, UniProt Q92956 39-283); assay: flow cytometry, HEK293 transfectants
T6 construct: whole, on cells
T6 sequence (looked up): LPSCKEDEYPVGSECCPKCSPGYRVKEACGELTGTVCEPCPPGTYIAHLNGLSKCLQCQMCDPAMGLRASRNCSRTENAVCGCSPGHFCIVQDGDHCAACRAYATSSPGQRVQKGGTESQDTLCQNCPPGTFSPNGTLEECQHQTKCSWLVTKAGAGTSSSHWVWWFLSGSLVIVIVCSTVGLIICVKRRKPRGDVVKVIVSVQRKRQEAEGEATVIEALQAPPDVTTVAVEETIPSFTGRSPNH
Protocol: as §2

Sequence of human CD40 (P25942 21-193 limits assumed): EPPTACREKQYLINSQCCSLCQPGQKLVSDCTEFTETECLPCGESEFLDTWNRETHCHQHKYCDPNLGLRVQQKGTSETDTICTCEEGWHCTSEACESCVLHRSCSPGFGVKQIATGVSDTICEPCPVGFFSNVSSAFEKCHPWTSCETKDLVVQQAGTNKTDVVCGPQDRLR

B1: 37A6 (antibody, IgG4, V domains shown)
VH: QVQLVESGGGLVKPGGSLRLSCAASEFTFSDYYMSWIRQAPGKGLEWVSYISRSGDTIYYADSVKGRFTISRDNAKNSLYLQMNGLRAEDTAVYYCARDLAAGATGGLDCWGQGTLVTVSS
VL: SYELTQPPSVSVSPGQTASITCSGERLGNKYICWYQQKPGQSPVLVIYQDFKRPSGIPERFSGSNSGITATLTISGTQAMDEADYYCQAWDSRTVVFGGGTKLTVLG
notes: also called 4865-1
Q: For B1, which “Ligand Binding Inhibition (%)” value [1] is on record?
A: 12%

Q: What about the “human B cell proliferation, no crosslinking, % Max Activity” value [2] of the same binder?
A: 0.4%

Q: And the “human B cell proliferation, no crosslinking, EC50” value [2]?
A: > 16.7 nM

Q: What about the “human B cell proliferation, with protein G crosslinking, % Max Activity” value [2] of the same binder?
A: 80.9%

Q: What about the “human B cell proliferation, with protein G crosslinking, EC50” value [2] of the same binder?
A: 0.3 nM

Q: What about the Kd [3] of the same binder?
A: 0.73 nM

Q: And the koff [3]?
A: 0.000387 s⁻¹

Q: What about the kon [3] of the same binder?
A: 531000 M⁻¹ s⁻¹

Q: And the Kd [4]?
A: 1.1 nM

Q: What about the koff [4] of the same binder?
A: 0.000672 s⁻¹

Q: What about the kon [4] of the same binder?
A: 612000 M⁻¹ s⁻¹

Q: What about the “Ligand Binding Inhibition (%)” value [5] of the same binder?
A: -19%

Q: Does B1 bind [6]?
A: no binding

Q: And the “Ligand Binding Inhibition (%)” value [7]?
A: 2%

Q: And the “human B cell proliferation, no crosslinking, EC50” value [8]?
A: > 16.7 nM

Q: And the “human B cell proliferation, no crosslinking, Max Fold Change” value [8]?
A: 1.19 fold

Q: And the “human B cell proliferation, with protein G crosslinking, EC50” value [8]?
A: 0.504 nM

Q: What about the “human B cell proliferation, with protein G crosslinking, Max Fold Change” value [8] of the same binder?
A: 27.1 fold

Q: Does B1 bind [9]?
A: no binding

Q: Does B1 bind [10]?
A: no binding

Q: Does B1 bind [11]?
A: no binding

B2: 36F3 (antibody, IgG4, V domains shown)
VH: QVQLQQSGPGLVKPSQTLSLTCAISGDSVSSSRTAWNWIRQSPSRGLEWLGRTYYRSKWYHDYSVSVKSRITIDPDTSKNQFSLQLNSVTPEDTAVYYCARGAAPFDYWGQGTLVTVSS
VL: EIVLTQSPGTLSLSPGERATLSCRASQSVSSNYLAWYQQKPGQAPRALIYAASNRAAGISDRFSGSGSGTDFTLTISRLEPEDFAVYFCQQYGSSPLTFGGGTKVEIKR
notes: also called 4891-1
Q: For B2, which “Ligand Binding Inhibition (%)” value [1] is on record?
A: 1%

Q: What about the “human B cell proliferation, no crosslinking, % Max Activity” value [2] of the same binder?
A: 8.2%

Q: And the “human B cell proliferation, no crosslinking, EC50” value [2]?
A: > 16.7 nM

Q: And the “human B cell proliferation, with protein G crosslinking, % Max Activity” value [2]?
A: 81.9%

Q: What about the “human B cell proliferation, with protein G crosslinking, EC50” value [2] of the same binder?
A: 0.3 nM

Q: And the Kd [3]?
A: 4.02 nM

Q: And the koff [3]?
A: 0.00021 s⁻¹

Q: What about the kon [3] of the same binder?
A: 52200 M⁻¹ s⁻¹

Q: What about the Kd [4] of the same binder?
A: 6.87 nM

Q: What about the koff [4] of the same binder?
A: 0.000443 s⁻¹

Q: What about the kon [4] of the same binder?
A: 64500 M⁻¹ s⁻¹

Q: And the “Ligand Binding Inhibition (%)” value [5]?
A: 1%

Q: Does B2 bind [6]?
A: no binding

Q: And the “Ligand Binding Inhibition (%)” value [7]?
A: 10%

Q: And the “human B cell proliferation, no crosslinking, EC50” value [8]?
A: > 16.7 nM

Q: What about the “human B cell proliferation, no crosslinking, Max Fold Change” value [8] of the same binder?
A: 1.83 fold

Q: And the “human B cell proliferation, with protein G crosslinking, EC50” value [8]?
A: 0.558 nM

Q: What about the “human B cell proliferation, with protein G crosslinking, Max Fold Change” value [8] of the same binder?
A: 16.9 fold

Q: Does B2 bind [9]?
A: no binding

Q: Does B2 bind [10]?
A: no binding

Q: Does B2 bind [11]?
A: no binding
